Results taken from patent US20120134993A1.

Columns and labels:
human VEGF-A (human) = human VEGF-A (human) (UniProt P15692); experiment: SPR (Biacore T100), VEGF-A immobilized, 100 nM VEGFR-2-Fc5 injected, 1:1 dissociation fit
[1] = molecular target: recombinant human FGF-8b (human) (UniProt P55075); experiment: cell-based or functional assay
[2] = molecular target: recombinant human FGF2 (human) (UniProt P09038); experiment: cell-based or functional assay
[3] = molecular target: recombinant human FGF6 (human) (UniProt P10767); experiment: cell-based or functional assay
[4] = molecular target: recombinant human FGF1 (human) (UniProt P05230); experiment: cell-based or functional assay
human FGF-9 (human) = human FGF-9 (human) (UniProt P31371); experiment: cell-based or functional assay
[5] = molecular target: recombinant human FGF4 (human) (UniProt P08620); experiment: cell-based or functional assay
[6] = molecular target: recombinant human FGF-17 (human) (UniProt O60258); experiment: direct binding ELISA, FGF-17 coated, FGFR-Fc titrated with heparin, anti-human Fc-HRP
[7] = molecular target: recombinant human FGF-8b (human) (UniProt P55075); experiment: direct binding ELISA, FGF-8b coated, FGFR-Fc titrated with heparin, anti-human Fc-HRP

Sequence of recombinant human FGF4 (human) (P08620 31-206 limits assumed): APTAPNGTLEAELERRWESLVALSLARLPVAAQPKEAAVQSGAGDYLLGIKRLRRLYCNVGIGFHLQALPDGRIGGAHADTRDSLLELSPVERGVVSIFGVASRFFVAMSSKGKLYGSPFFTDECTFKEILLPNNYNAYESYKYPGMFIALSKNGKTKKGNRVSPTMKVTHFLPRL
Sequence of recombinant human FGF1 (human) (P05230 16-155 limits assumed): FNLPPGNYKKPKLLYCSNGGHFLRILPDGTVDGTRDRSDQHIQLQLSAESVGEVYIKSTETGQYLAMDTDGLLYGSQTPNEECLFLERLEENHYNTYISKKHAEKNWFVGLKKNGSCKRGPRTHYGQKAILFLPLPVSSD
Sequence of recombinant human FGF2 (human) (P09038 143-288 limits assumed): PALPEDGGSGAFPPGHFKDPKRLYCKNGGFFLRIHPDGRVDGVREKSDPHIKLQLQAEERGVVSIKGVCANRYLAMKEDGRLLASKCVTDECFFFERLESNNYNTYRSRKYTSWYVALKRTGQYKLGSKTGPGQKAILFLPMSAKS
Sequence of recombinant human FGF-8b (human) (P55075 other isoform, or with tags, fused parts or gaps limits assumed): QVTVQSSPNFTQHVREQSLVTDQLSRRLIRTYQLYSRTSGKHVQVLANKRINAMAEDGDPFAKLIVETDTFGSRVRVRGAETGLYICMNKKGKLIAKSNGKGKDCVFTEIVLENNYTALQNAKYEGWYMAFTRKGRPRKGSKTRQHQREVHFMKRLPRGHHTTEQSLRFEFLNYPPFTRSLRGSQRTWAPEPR
Sequence of recombinant human FGF6 (human) (P10767 83-208 limits assumed): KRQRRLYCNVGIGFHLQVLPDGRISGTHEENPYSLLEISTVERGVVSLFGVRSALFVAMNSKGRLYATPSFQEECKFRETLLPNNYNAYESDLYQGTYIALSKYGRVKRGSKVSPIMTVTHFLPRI
Sequence of human FGFR1-Fc (R&D Systems) (P11362 22-376): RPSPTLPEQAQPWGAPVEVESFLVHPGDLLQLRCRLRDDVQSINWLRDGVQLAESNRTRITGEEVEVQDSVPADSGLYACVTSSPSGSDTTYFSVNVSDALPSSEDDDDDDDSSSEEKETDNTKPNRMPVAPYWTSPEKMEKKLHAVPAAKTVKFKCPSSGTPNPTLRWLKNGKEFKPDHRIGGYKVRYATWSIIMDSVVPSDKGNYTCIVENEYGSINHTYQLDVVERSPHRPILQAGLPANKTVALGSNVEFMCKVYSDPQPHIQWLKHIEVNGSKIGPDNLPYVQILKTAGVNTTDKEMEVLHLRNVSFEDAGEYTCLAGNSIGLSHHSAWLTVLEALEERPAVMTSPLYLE
Sequence of recombinant human FGF-17 (human) (O60258 23-216 limits assumed): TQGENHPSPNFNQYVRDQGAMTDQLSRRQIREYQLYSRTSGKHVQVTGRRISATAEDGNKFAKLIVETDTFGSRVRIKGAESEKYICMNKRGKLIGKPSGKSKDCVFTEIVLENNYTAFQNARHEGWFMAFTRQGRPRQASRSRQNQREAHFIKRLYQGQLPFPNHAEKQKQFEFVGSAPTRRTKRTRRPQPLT
Sequence of human VEGF-A (human) (P15692 other isoform, or with tags, fused parts or gaps limits assumed): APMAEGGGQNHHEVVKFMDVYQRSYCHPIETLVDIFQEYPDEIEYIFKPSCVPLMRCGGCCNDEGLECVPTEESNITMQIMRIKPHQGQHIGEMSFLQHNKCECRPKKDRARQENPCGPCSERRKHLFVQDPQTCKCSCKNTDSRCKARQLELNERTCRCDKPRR

Substance	koff (human VEGF-A (human))	Proliferation IC50, FGF8b-stimulated LNCap cells (3H-thymidine) [1]	IC50, FGF-stimulated HUVEC proliferation (3H-thymidine) [2]	IC50, FGF-stimulated HUVEC proliferation (3H-thymidine) [3]	IC50, FGF-stimulated HUVEC proliferation (3H-thymidine) [4]	Proliferation IC50, FGF-9-stimulated HCO osteoblasts (3H-thymidine) (human FGF-9 (human))	IC50, FGF-stimulated HUVEC proliferation (3H-thymidine) [5]	IC50 [6]	IC50 [7]
human FGFR2-Fc (R&D Systems) (from UniProt P21802 22-377) (Fc fusion)		0.29 nM	0.85 nM	0.3 nM	0.42 nM	0.49 nM	0.48 nM		
FGFR2alphaIIIc(145-377)(S252W) Fc5, truncated FGFR2-Fc S252W (A2560F) (Fc fusion)		0.01 nM							
human FGFR1-Fc (R&D Systems) (from UniProt P11362 22-376) (Fc fusion)			0.92 nM	0.42 nM	0.63 nM	1.1 nM	0.53 nM		

Results, then the substance that gave them:

koff (human VEGF-A (human))	Proliferation IC50, FGF8b-stimulated LNCap cells (3H-thymidine) [1]	IC50, FGF-stimulated HUVEC proliferation (3H-thymidine) [2]	IC50, FGF-stimulated HUVEC proliferation (3H-thymidine) [3]	IC50, FGF-stimulated HUVEC proliferation (3H-thymidine) [4]	Proliferation IC50, FGF-9-stimulated HCO osteoblasts (3H-thymidine) (human FGF-9 (human))	IC50, FGF-stimulated HUVEC proliferation (3H-thymidine) [5]	IC50 [6]	IC50 [7]	Substance
0.0002 s⁻¹									VEGFR-2-Fc5 (from UniProt P0DOX5 218-449) (Fc fusion)
	0.79 nM	5.5 nM	9.96 nM	0.53 nM	0.44 nM	1.06 nM	30.1 nM	23.4 nM	human FGFR3-Fc (R&D Systems) (from UniProt P22607 23-375) (Fc fusion)
	0.01 nM								FGFR2alphaIIIc(145-377)(P253R) Fc5, truncated FGFR2-Fc P253R (A2561F) (Fc fusion)
	0.3 nM								FGFR2alphaIIIc(145-377) Fc5, truncated FGFR2-Fc (A2559F) (Fc fusion)
